# Reference: publication PMC3636079, “Determinants at the N- and C-termini of Gα12 required for activation of Rho-mediated signaling” (Journal of Molecular Signaling, 2013)
# T1: GST fusion of amino acids 1-252 of p115RhoGEF (GST-p115-RH) (UniProt Q92888 1-252)
# T1 construct: p115RhoGEF, N-terminal 252 amino acids holding the RH domain; subcloned by PCR from a plasmid with an N-terminal myc tag on p115RhoGEF 1-252; also called RGS
# T1 sequence (looked up): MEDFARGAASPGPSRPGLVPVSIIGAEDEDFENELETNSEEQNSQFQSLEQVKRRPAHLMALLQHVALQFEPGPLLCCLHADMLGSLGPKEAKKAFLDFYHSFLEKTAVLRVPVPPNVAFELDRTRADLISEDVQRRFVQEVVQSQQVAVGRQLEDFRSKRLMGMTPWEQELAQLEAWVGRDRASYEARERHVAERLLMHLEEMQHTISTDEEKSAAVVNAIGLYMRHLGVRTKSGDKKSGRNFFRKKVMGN
# T2: GST fusion of amino acids 320-606 of LARG (GST-LARG-RH) (UniProt Q9NZN5 320-606)
# T2 construct: leukemia-associated RhoGEF (LARG), RGS-homology (RH) domain, amino acids 320-606; plasmid provided by Tohru Kozasa
# T2 sequence (looked up): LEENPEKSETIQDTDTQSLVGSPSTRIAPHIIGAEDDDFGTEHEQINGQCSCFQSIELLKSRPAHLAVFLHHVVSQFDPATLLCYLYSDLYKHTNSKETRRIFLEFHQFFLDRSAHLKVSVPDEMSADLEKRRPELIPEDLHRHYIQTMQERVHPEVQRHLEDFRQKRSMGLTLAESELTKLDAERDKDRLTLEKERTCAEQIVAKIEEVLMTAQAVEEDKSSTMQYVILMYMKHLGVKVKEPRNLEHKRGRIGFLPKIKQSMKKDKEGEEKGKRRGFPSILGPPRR
# B1: myc-Gα12^QL Glu^31/33Arg (natural protein, UniProt P27600 1-379, looked up)
# chain: MSGVVRTLSRCLLPAEAGARERRAGAARDARRRARRRSRDIDALLARERRAVRRLVKILLLGAGESGKSTFLKQMRIIHGREFDQKALLEFRDTIFDNILKGSRVLVDARDKLGIPWQHSENEKHGMFLMAFENKAGLPVEPATFQLYVPALSALWRDSGIREAFSRRSEFQLGESVKYFLDNLDRIGQLNYFPSKQDILLARKATKGIVEHDFVIKKIPFKMVDVGGLRSQRQKWFQCFDGITSILFMVSSSEYDQVLMEDRRTNRLVESMNIFETIVNNKLFFNVSIILFLNKMDLLVEKVKSVSIKKHFPDFKGDPHRLEDVQRYLVQCFDRKRRNRSKPLFHHFTTAIDTENIRFVFHAVKDTILQENLKDIMLQ
# notes: Gα12 with Q229L and Glu31 and Glu33 changed to Arg; also called double charge substitution mutant; source: HEK293, transfected, in detergent-soluble extract
# How the values were obtained:
# [1] = molecular target: T1, GST fusion of amino acids 1-252 of …; experiment: pull-down; GST fusion (or GST alone) immobilised on glutathione-sepharose; HEK293 detergent-soluble extract diluted to 0.05% polyoxyethylene-10-lauryl ether in 50 mM HEPES pH 7.5, 1 mM EDTA, 3 mM dithiothreitol, 10 mM MgSO4; about 2 h at 4°C; three washes; immunoblot with anti-Gα12 or anti-myc; band intensities given as pulldown:load ratio; conditions: one partner purified
# [2] = molecular target: T2, GST fusion of amino acids 320-606 of …; experiment: as above; conditions: one partner purified
binder,measurement,setting,value
B1,"pulldown:load ratio, percent of myc-Gα12^QL",[1],~86%
same,"pulldown:load ratio, percent of myc-Gα12^QL",[2],~18%
